B1: Tyrosine-protein phosphatase non-receptor type 2 (Homo sapiens), P17706-1 (parent)
chain: MPTTIEREFEELDTQRRWQPLYLEIRNESHDYPHRVAKFPENRNRNRYRDVSPYDHSRVKLQNAENDYINASLVDIEEAQRSYILTQGPLPNTCCHFWLMVWQQKTKAVVMLNRIVEKESVKCAQYWPTDDQEMLFKETGFSVKLLSEDVKSYYTVHLLQLENINSGETRTISHFHYTTWPDFGVPESPASFLNFLFKVRESGSLNPDHGPAVIHCSAGIGRSGTFSLVDTCLVLMEKGDDINIKQVLLNMRKYRMGLIQTPDQLRFSYMAIIEGAKCIKGDSSIQKRWKELSKEDLSPAFDHSPNKIMTEKYNGNRIGLEEEKLTGDRCTGLSSKMQDTMEENSESALRKRIREDRKATTAQKVQQMKQRLNENERKRKRWLYWQPILTKMGFMSVILVGAFVGWTLFFQQNAL
B2: Tyrosine-protein phosphatase non-receptor type 2 (Homo sapiens), P17706-2 (parent)
chain: MPTTIEREFEELDTQRRWQPLYLEIRNESHDYPHRVAKFPENRNRNRYRDVSPYDHSRVKLQNAENDYINASLVDIEEAQRSYILTQGPLPNTCCHFWLMVWQQKTKAVVMLNRIVEKESVKCAQYWPTDDQEMLFKETGFSVKLLSEDVKSYYTVHLLQLENINSGETRTISHFHYTTWPDFGVPESPASFLNFLFKVRESGSLNPDHGPAVIHCSAGIGRSGTFSLVDTCLVLMEKGDDINIKQVLLNMRKYRMGLIQTPDQLRFSYMAIIEGAKCIKGDSSIQKRWKELSKEDLSPAFDHSPNKIMTEKYNGNRIGLEEEKLTGDRCTGLSSKMQDTMEENSESALRKRIREDRKATTAQKVQQMKQRLNENERKRKRPRLTDT

Variants of: B1
Settings: with insr_human INSR

Row | Variant | effect of a mutation on the interaction
1 | MPTTIEREFEELDTQRRWQPLYLEIRNESHDYPHRVAKFPENRNRNRYRDVSPYDHSRVKLQNAENDYINASLVDIEEAQRSYILTQGPLPNTCCHFWLMVWQQKTKAVVMLNRIVEKESVKCAQYWPTDDQEMLFKETGFSVKLLSEDVKSYYTVHLLQLENINSGETRTISHFHYTTWPAFGVPESPASFLNFLFKVRESGSLNPDHGPAVIHCSAGIGRSGTFSLVDTCLVLMEKGDDINIKQVLLNMRKYRMGLIQTPDQLRFSYMAIIEGAKCIKGDSSIQKRWKELSKEDLSPAFDHSPNKIMTEKYNGNRIGLEEEKLTGDRCTGLSSKMQDTMEENSESALRKRIREDRKATTAQKVQQMKQRLNENERKRKRWLYWQPILTKMGFMSVILVGAFVGWTLFFQQNAL [D182A] | causing an interaction

Variants of: B2
Settings: with insr_human INSR

Row | Variant | effect of a mutation on the interaction
2 | MPTTIEREFEELDTQRRWQPLYLEIRNESHDYPHRVAKFPENRNRNRYRDVSPYDHSRVKLQNAENDYINASLVDIEEAQRSYILTQGPLPNTCCHFWLMVWQQKTKAVVMLNRIVEKESVKCAQYWPTDDQEMLFKETGFSVKLLSEDVKSYYTVHLLQLENINSGETRTISHFHYTTWPAFGVPESPASFLNFLFKVRESGSLNPDHGPAVIHCSAGIGRSGTFSLVDTCLVLMEKGDDINIKQVLLNMRKYRMGLIQTPDQLRFSYMAIIEGAKCIKGDSSIQKRWKELSKEDLSPAFDHSPNKIMTEKYNGNRIGLEEEKLTGDRCTGLSSKMQDTMEENSESALRKRIREDRKATTAQKVQQMKQRLNENERKRKRPRLTDT [D182A] | causing an interaction
